According to patent US6015555, “Transferrin receptor specific antibody-neuropharmaceutical or diagnostic agent conjugates” (Alkermes, Inc., dated 2000):
Blank lines part the entries; values can stand above or below the molecule they belong to.

Key:
[1] = biological target: T1, rat transferrin receptor (rat, UniProt Q99376)
[2] = biological target: T1, rat transferrin receptor; remark: listed apart in the source
[3] = biological target: T1, rat transferrin receptor; remark: listed apart in the source
[4] = biological target: T1, rat transferrin receptor; test: immunohistochemistry on rat brain sections (brain capillary endothelial cells)
Text: Biodistribution and Brain Uptake of Anti-Human Transferrin Receptor Antibodies in Cynomolgous Monkeys A collection of 32 murine monoclonal antibodies which recognize various epitopes on the human transferrin receptor were examined for reactivity with brain capillary endothelial cells in sections from human, monkey (cynomolgous), rat and rabbit brain samples by the immunohistochemical methods described in Example 1. These antibodies were obtained from Dr. Ian Trowbridge of the Salk Institute, LaJolla, Calif. […] Two antibodies reacted very weakly with rabbit brain capillaries and none reacted with rat. […] These 2 antibodies are herewithin referred to as 128.1 and Z35.2.

[5] = biological target: transferrin receptor on monkey (cynomolgous) brain capillaries (monkey (cynomolgous))

distribution of 3H-MTX label between brain capillary fraction and parenchyma fraction (capillary depletion) [1]: 4.5 fold
Molecule: OX-26-methotrexate (MTX) conjugate linked via a gamma-hydrazid (antibody)

distribution of radiolabelled antibody between brain capillary fraction and parenchyma fraction (capillary depletion) [2]: 0.36 % ID | percent of the injected dose of 14C-labelled antibody in the brain (% of the injected dose) [3]: 0.9
Molecule: OX-26 murine monoclonal antibody

binding result [4]: no binding | share of 14C-labelled antibody in the brain parenchyma (capillary depletion) 24 hours after injection into a cynomolgous monkey [5]: 90%
B1: murine monoclonal antibody 128.1 (antibody, V domains shown)
VH: EVQLQQSGPELVKPGASMKISCKASGYSFTGYTMNWVKQSHGENLEWIGRINPHNGGTDYNQKFKDKAPLTVDKSSNTAYMELLSLTSGDSAVYYCARGYYYYSLDYWGQGTSVTVSS
VL: QIVLTQSPAIMSVSPGEKVTMTCSASSSIRYIHWYQQRPGTSPKRWIYDTSNLASGVPARFSGSGSGTSYSLTISSMEAEDAATYYCHQRNSYPWTFGGGTRLEIR
